Measured values published in patent publication US20140087995A1 (published 2014).
Numbered stars: 1 amine (or outer) side, 2 acyl side, 3 side chain; on linkers, the order of the positions; unused ones are H or OH. Bridge positions count the residues as written; N and C are the ends. Square brackets hold non-standard residues; d marks the D form. Side chains are listed from the residue outwards. Ends that are not written are not given here. * marks the point of attachment. C20 diacid = O=C(O)CCCCCCCCCCCCCCCCCCC(=O)*; γGlu = O=C(O)[C@H](CCC(=O)[*:2])N[*:1]

T1: human amylin receptor (amylin 3(a) receptor: human calcitonin receptor co-expressed with RAMP-3) (human, UniProt P30988 25-474; O60896 24-148, limits assumed)
T1 construct: whole, on cells; Used as cell membranes prepared from the Amylin 3(a)/CRE-luc BHK cells (Assay V); also called hAmylin-R; hAmylinR
T1 sequence (looked up) 1: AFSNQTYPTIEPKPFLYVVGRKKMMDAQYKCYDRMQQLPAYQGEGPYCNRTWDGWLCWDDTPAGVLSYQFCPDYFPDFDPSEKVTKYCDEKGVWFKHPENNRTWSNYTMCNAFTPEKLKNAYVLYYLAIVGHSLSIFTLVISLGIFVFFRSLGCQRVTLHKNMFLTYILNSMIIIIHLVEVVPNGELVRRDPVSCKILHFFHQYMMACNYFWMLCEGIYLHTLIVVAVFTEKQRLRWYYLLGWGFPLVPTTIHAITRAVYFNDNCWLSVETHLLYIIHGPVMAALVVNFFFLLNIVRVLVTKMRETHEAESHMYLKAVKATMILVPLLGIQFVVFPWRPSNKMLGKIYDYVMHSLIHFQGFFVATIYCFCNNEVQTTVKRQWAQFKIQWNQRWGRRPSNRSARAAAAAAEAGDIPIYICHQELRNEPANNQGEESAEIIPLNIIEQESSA
T1 sequence (looked up) 2: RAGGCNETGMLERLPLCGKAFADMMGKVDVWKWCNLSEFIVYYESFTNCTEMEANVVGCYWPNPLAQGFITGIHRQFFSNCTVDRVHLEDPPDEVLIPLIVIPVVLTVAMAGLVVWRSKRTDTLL

B1: N^ε1-[(4S)-4-carboxy-4-(19-carboxynonadecanoylamino)butanoyl]-[Asp14,Arg17,Pro21,Pro27,Pro34,Arg35]-h-amylin (peptide)
peptide: K([γGlu-C20 diacid])CNTATCATQRLADFLRHSSPNFGAIPSSTNVGPRTY-NH2
modifications: disulfide 2-7; N-terminus assumed
SMILES: CC[C@H](C)[C@H](NC(=O)[C@H](C)NC(=O)CNC(=O)[C@H](Cc1ccccc1)NC(=O)[C@H](CC(N)=O)NC(=O)[C@@H]1CCCN1C(=O)[C@H](CO)NC(=O)[C@H](CO)NC(=O)[C@H](Cc1c[nH]cn1)NC(=O)[C@H](CCCNC(=N)N)NC(=O)[C@H](CC(C)C)NC(=O)[C@H](Cc1ccccc1)NC(=O)[C@H](CC(=O)O)NC(=O)[C@H](C)NC(=O)[C@H](CC(C)C)NC(=O)[C@H](CCCNC(=N)N)NC(=O)[C@H](CCC(N)=O)NC(=O)[C@@H](NC(=O)[C@H](C)NC(=O)[C@@H]1CSSC[C@H](NC(=O)[C@@H](N)CCCCNC(=O)CC[C@H](NC(=O)CCCCCCCCCCCCCCCCCCC(=O)O)C(=O)O)C(=O)N[C@@H](CC(N)=O)C(=O)N[C@@H]([C@@H](C)O)C(=O)N[C@@H](C)C(=O)N[C@@H]([C@@H](C)O)C(=O)N1)[C@@H](C)O)C(=O)N1CCC[C@H]1C(=O)N[C@@H](CO)C(=O)N[C@@H](CO)C(=O)N[C@H](C(=O)N[C@@H](CC(N)=O)C(=O)N[C@H](C(=O)NCC(=O)N1CCC[C@H]1C(=O)N[C@@H](CCCNC(=N)N)C(=O)N[C@H](C(=O)N[C@@H](Cc1ccc(O)cc1)C(N)=O)[C@@H](C)O)C(C)C)[C@@H](C)O
B2: N^ε1-[(4S)-4-carboxy-4-[[(4S)-4-carboxy-4-(19-carboxynonadecanoylamino)butanoyl]amino]butanoyl]-[D-Asp14,Arg17,Pro21,Pro27,Arg35]-h-amylin (peptide)
peptide: K([γGlu-γGlu-C20 diacid])CNTATCATQRLA[dD]FLRHSSPNFGAIPSSTNVGSRTY-NH2
modifications: disulfide 2-7; N-terminus assumed
SMILES: CC[C@H](C)[C@H](NC(=O)[C@H](C)NC(=O)CNC(=O)[C@H](Cc1ccccc1)NC(=O)[C@H](CC(N)=O)NC(=O)[C@@H]1CCCN1C(=O)[C@H](CO)NC(=O)[C@H](CO)NC(=O)[C@H](Cc1c[nH]cn1)NC(=O)[C@H](CCCNC(=N)N)NC(=O)[C@H](CC(C)C)NC(=O)[C@H](Cc1ccccc1)NC(=O)[C@@H](CC(=O)O)NC(=O)[C@H](C)NC(=O)[C@H](CC(C)C)NC(=O)[C@H](CCCNC(=N)N)NC(=O)[C@H](CCC(N)=O)NC(=O)[C@@H](NC(=O)[C@H](C)NC(=O)[C@@H]1CSSC[C@H](NC(=O)[C@@H](N)CCCCNC(=O)CC[C@H](NC(=O)CC[C@H](NC(=O)CCCCCCCCCCCCCCCCCCC(=O)O)C(=O)O)C(=O)O)C(=O)N[C@@H](CC(N)=O)C(=O)N[C@@H]([C@@H](C)O)C(=O)N[C@@H](C)C(=O)N[C@@H]([C@@H](C)O)C(=O)N1)[C@@H](C)O)C(=O)N1CCC[C@H]1C(=O)N[C@@H](CO)C(=O)N[C@@H](CO)C(=O)N[C@H](C(=O)N[C@@H](CC(N)=O)C(=O)N[C@H](C(=O)NCC(=O)N[C@@H](CO)C(=O)N[C@@H](CCCNC(=N)N)C(=O)N[C@H](C(=O)N[C@@H](Cc1ccc(O)cc1)C(N)=O)[C@@H](C)O)C(C)C)[C@@H](C)O
B3: N^ε1-[(4S)-4-carboxy-4-[[(4S)-4-carboxy-4-(19-carboxynonadecanoylamino)butanoyl]amino]butanoyl]-[Glu14,Arg17,Pro21,Pro27,Pro34,Glu35,Pro37]-h-amylin (peptide)
peptide: K([γGlu-γGlu-C20 diacid])CNTATCATQRLAEFLRHSSPNFGAIPSSTNVGPETP-NH2
modifications: disulfide 2-7; N-terminus assumed
SMILES: CC[C@H](C)[C@H](NC(=O)[C@H](C)NC(=O)CNC(=O)[C@H](Cc1ccccc1)NC(=O)[C@H](CC(N)=O)NC(=O)[C@@H]1CCCN1C(=O)[C@H](CO)NC(=O)[C@H](CO)NC(=O)[C@H](Cc1c[nH]cn1)NC(=O)[C@H](CCCNC(=N)N)NC(=O)[C@H](CC(C)C)NC(=O)[C@H](Cc1ccccc1)NC(=O)[C@H](CCC(=O)O)NC(=O)[C@H](C)NC(=O)[C@H](CC(C)C)NC(=O)[C@H](CCCNC(=N)N)NC(=O)[C@H](CCC(N)=O)NC(=O)[C@@H](NC(=O)[C@H](C)NC(=O)[C@@H]1CSSC[C@H](NC(=O)[C@@H](N)CCCCNC(=O)CC[C@H](NC(=O)CC[C@H](NC(=O)CCCCCCCCCCCCCCCCCCC(=O)O)C(=O)O)C(=O)O)C(=O)N[C@@H](CC(N)=O)C(=O)N[C@@H]([C@@H](C)O)C(=O)N[C@@H](C)C(=O)N[C@@H]([C@@H](C)O)C(=O)N1)[C@@H](C)O)C(=O)N1CCC[C@H]1C(=O)N[C@@H](CO)C(=O)N[C@@H](CO)C(=O)N[C@H](C(=O)N[C@@H](CC(N)=O)C(=O)N[C@H](C(=O)NCC(=O)N1CCC[C@H]1C(=O)N[C@@H](CCC(=O)O)C(=O)N[C@H](C(=O)N1CCC[C@H]1C(N)=O)[C@@H](C)O)C(C)C)[C@@H](C)O
B4: N^ε1-[(4S)-4-carboxy-4-(19-carboxynonadecanoylamino)butanoyl]-[His14,Arg17,Pro21,Pro27,Pro34,Pro37]-h-amylin (peptide)
peptide: K([γGlu-C20 diacid])CNTATCATQRLAHFLRHSSPNFGAIPSSTNVGPNTP-NH2
modifications: disulfide 2-7; N-terminus assumed
SMILES: CC[C@H](C)[C@H](NC(=O)[C@H](C)NC(=O)CNC(=O)[C@H](Cc1ccccc1)NC(=O)[C@H](CC(N)=O)NC(=O)[C@@H]1CCCN1C(=O)[C@H](CO)NC(=O)[C@H](CO)NC(=O)[C@H](Cc1c[nH]cn1)NC(=O)[C@H](CCCNC(=N)N)NC(=O)[C@H](CC(C)C)NC(=O)[C@H](Cc1ccccc1)NC(=O)[C@H](Cc1c[nH]cn1)NC(=O)[C@H](C)NC(=O)[C@H](CC(C)C)NC(=O)[C@H](CCCNC(=N)N)NC(=O)[C@H](CCC(N)=O)NC(=O)[C@@H](NC(=O)[C@H](C)NC(=O)[C@@H]1CSSC[C@H](NC(=O)[C@@H](N)CCCCNC(=O)CC[C@H](NC(=O)CCCCCCCCCCCCCCCCCCC(=O)O)C(=O)O)C(=O)N[C@@H](CC(N)=O)C(=O)N[C@@H]([C@@H](C)O)C(=O)N[C@@H](C)C(=O)N[C@@H]([C@@H](C)O)C(=O)N1)[C@@H](C)O)C(=O)N1CCC[C@H]1C(=O)N[C@@H](CO)C(=O)N[C@@H](CO)C(=O)N[C@H](C(=O)N[C@@H](CC(N)=O)C(=O)N[C@H](C(=O)NCC(=O)N1CCC[C@H]1C(=O)N[C@@H](CC(N)=O)C(=O)N[C@H](C(=O)N1CCC[C@H]1C(N)=O)[C@@H](C)O)C(C)C)[C@@H](C)O
B5: N^ε1-[(4S)-4-carboxy-4-(19-carboxynonadecanoylamino)butanoyl]-[Glu14,Arg17,Pro21,Pro27,Pro34,Pro37]-h-amylin (peptide)
peptide: K([γGlu-C20 diacid])CNTATCATQRLAEFLRHSSPNFGAIPSSTNVGPNTP-NH2
modifications: disulfide 2-7; N-terminus assumed
SMILES: CC[C@H](C)[C@H](NC(=O)[C@H](C)NC(=O)CNC(=O)[C@H](Cc1ccccc1)NC(=O)[C@H](CC(N)=O)NC(=O)[C@@H]1CCCN1C(=O)[C@H](CO)NC(=O)[C@H](CO)NC(=O)[C@H](Cc1c[nH]cn1)NC(=O)[C@H](CCCNC(=N)N)NC(=O)[C@H](CC(C)C)NC(=O)[C@H](Cc1ccccc1)NC(=O)[C@H](CCC(=O)O)NC(=O)[C@H](C)NC(=O)[C@H](CC(C)C)NC(=O)[C@H](CCCNC(=N)N)NC(=O)[C@H](CCC(N)=O)NC(=O)[C@@H](NC(=O)[C@H](C)NC(=O)[C@@H]1CSSC[C@H](NC(=O)[C@@H](N)CCCCNC(=O)CC[C@H](NC(=O)CCCCCCCCCCCCCCCCCCC(=O)O)C(=O)O)C(=O)N[C@@H](CC(N)=O)C(=O)N[C@@H]([C@@H](C)O)C(=O)N[C@@H](C)C(=O)N[C@@H]([C@@H](C)O)C(=O)N1)[C@@H](C)O)C(=O)N1CCC[C@H]1C(=O)N[C@@H](CO)C(=O)N[C@@H](CO)C(=O)N[C@H](C(=O)N[C@@H](CC(N)=O)C(=O)N[C@H](C(=O)NCC(=O)N1CCC[C@H]1C(=O)N[C@@H](CC(N)=O)C(=O)N[C@H](C(=O)N1CCC[C@H]1C(N)=O)[C@@H](C)O)C(C)C)[C@@H](C)O
B6: N^ε1-[(4S)-4-carboxy-4-[[(4S)-4-carboxy-4-(19-carboxynonadecanoylamino)butanoyl]amino]butanoyl]-[Glu14,Arg17,Pro21,Pro27,Pro34,Phe37]-h-amylin (peptide)
peptide: K([γGlu-γGlu-C20 diacid])CNTATCATQRLAEFLRHSSPNFGAIPSSTNVGPNTF-NH2
modifications: disulfide 2-7; N-terminus assumed
SMILES: CC[C@H](C)[C@H](NC(=O)[C@H](C)NC(=O)CNC(=O)[C@H](Cc1ccccc1)NC(=O)[C@H](CC(N)=O)NC(=O)[C@@H]1CCCN1C(=O)[C@H](CO)NC(=O)[C@H](CO)NC(=O)[C@H](Cc1c[nH]cn1)NC(=O)[C@H](CCCNC(=N)N)NC(=O)[C@H](CC(C)C)NC(=O)[C@H](Cc1ccccc1)NC(=O)[C@H](CCC(=O)O)NC(=O)[C@H](C)NC(=O)[C@H](CC(C)C)NC(=O)[C@H](CCCNC(=N)N)NC(=O)[C@H](CCC(N)=O)NC(=O)[C@@H](NC(=O)[C@H](C)NC(=O)[C@@H]1CSSC[C@H](NC(=O)[C@@H](N)CCCCNC(=O)CC[C@H](NC(=O)CC[C@H](NC(=O)CCCCCCCCCCCCCCCCCCC(=O)O)C(=O)O)C(=O)O)C(=O)N[C@@H](CC(N)=O)C(=O)N[C@@H]([C@@H](C)O)C(=O)N[C@@H](C)C(=O)N[C@@H]([C@@H](C)O)C(=O)N1)[C@@H](C)O)C(=O)N1CCC[C@H]1C(=O)N[C@@H](CO)C(=O)N[C@@H](CO)C(=O)N[C@H](C(=O)N[C@@H](CC(N)=O)C(=O)N[C@H](C(=O)NCC(=O)N1CCC[C@H]1C(=O)N[C@@H](CC(N)=O)C(=O)N[C@H](C(=O)N[C@@H](Cc1ccccc1)C(N)=O)[C@@H](C)O)C(C)C)[C@@H](C)O

Biological target: T1, human amylin receptor (amylin 3(a) …)
Experiment: SPA displacement of 125I-rat amylin, hAmylin 3(a) receptor membranes
How it was run: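 Membranes from BHK Amylin 3(a)/CRE-luc cells (35 ng/μL final) were mixed with SPA beads and test compounds in 50 mM Hepes pH 7.4 with 1 mM CaCl2, 5 mM MgCl₂, 0.1% OA and 0.02% Tween20. Incubation ran 120 min at 25° C with shaking; IC₅₀ came from one-site competition fitting.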

IC50 [nM] | Binder
0.281 | B1
0.453 | K([γGlu-γGlu-C20 diacid])CNTATCATQRLADFLRHSSPNFGAIPSSTNVGPRTY-NH2 (disulfide 2-7, also called compound 130)
0.377 | K([γGlu-γGlu-C20 diacid])CNTATCATQRLAEFLRHSSPNFGAIPSSTNVGPHTY-NH2 (disulfide 2-7 (inferred))
0.365 | B2
0.533 | B3
0.131 | B4
0.214 | B5
0.152 | B6
